Values of other authors as cited in article PMC5342629.
Read-outs that look alike come from different tables or passages of the source.

Tests used:
[1] = biological target: Cdc4 (Saccharomyces cerevisiae) (UniProt P07834)
[2] = biological target: Cdc4 (Saccharomyces cerevisiae) (UniProt P07834); remark: listed apart in the source
[3] = biological target: Cdc4 (Saccharomyces cerevisiae) (UniProt P07834); remark: listed apart in the source

Chain of UniProt P07834 (P07834 whole entry): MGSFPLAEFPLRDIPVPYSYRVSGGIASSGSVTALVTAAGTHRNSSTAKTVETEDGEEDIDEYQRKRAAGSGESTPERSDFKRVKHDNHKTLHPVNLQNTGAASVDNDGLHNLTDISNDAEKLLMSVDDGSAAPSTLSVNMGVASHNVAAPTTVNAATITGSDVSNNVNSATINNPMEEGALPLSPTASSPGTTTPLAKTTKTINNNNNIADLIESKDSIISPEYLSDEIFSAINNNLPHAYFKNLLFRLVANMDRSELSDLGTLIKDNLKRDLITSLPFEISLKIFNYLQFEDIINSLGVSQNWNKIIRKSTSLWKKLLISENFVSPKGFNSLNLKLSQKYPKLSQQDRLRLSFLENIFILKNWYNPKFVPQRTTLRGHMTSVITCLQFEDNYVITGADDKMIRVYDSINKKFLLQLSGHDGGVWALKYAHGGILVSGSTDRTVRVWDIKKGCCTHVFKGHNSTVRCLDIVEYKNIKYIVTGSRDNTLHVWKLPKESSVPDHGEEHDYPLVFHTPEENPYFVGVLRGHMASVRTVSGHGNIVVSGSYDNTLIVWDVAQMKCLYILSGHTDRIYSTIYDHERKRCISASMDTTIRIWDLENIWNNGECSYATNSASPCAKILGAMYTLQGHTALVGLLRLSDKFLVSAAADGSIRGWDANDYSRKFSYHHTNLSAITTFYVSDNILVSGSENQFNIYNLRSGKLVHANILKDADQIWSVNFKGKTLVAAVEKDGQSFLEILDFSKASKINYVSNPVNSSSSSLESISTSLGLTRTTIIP

| Kd [1] [nM] | Kd [2] [nM] | Kd [3] [nM] | Substance |
| --- | --- | --- | --- |
| 2400 |  |  | Sic1 20-residue peptide (from UniProt P38634) |
|  | 1000 | > 50000 | Sic1 (from UniProt P38634) |
